# Test results reported in the DeepSol protein solubility set.
# Assay: soluble on expression in E. coli; label from the status in PepcDB or PDB records
row,Sequence,soluble on expression in E. coli
1,MVASSINEESSLAVNLTSDVEKASKTLFKAFEKSYANDYLMKKFFHIPITEKVSRARINAMIHYYTTCYHDLDGEIAEANDFDAVAIWSRPGCHLPATLSDDESFNKIFFSRLDCEEARSHASGNGLLLPLCHRKRS,not soluble
2,MSVKVAFIRHHNLWIKVDGKEIQITKGEYITGPKWSYDGEWLAYVKGKKQSILELYRLKDGKKVTPFHSEASNYQWSPTENIIAFIFTGTLNTFDVEKKNADFENVSAGVGDYAWYPDGKNFLVSSEAHLLPTGWTGAQLYEVQKDAHMNPHKMKHLYALPNEHDDFLALVASGFKWSPDQKWISFLAVPTASWSADSNTLCLVRADGSRFEKVDQMLLNAQWFQWAPSKNILAYIEGSGRVALENKHLKVKELPALQQNIFTPKGYVDWDFVWKNDRVIIVSRAKEAGIETPPEKRPLPSLYEVDSTSNAQHQITKKTNKQGDYHPIFMKKSNQLIWIRSDRKKADVWLAHKDRKQEKKWIENIDVPAWYYEKWNWGNVISVKEELEHHHHHH,soluble
3,MSNINIRVAHEQDAEELHSIMQIAFTPLRELGIDWPSVHADLEMVKDNLRQNTTFVLENEKEIISTITVCYSWSSVKPISGYPFVWWFATRPTYDGQGYGSQLLKYAEETFLRDTLKAAAVTLGTSARLHPWLLNIYEKRGYEIYAKHENDDGDLGVIMRKILIPEQFNDDILGRPPF,not soluble
4,MSLFKSQTAILPEAGPFALYTLLKVRQNHAHVLQALKALPALVEEINQNQPGAELTVSVAFSKGFWSHFEMASPPELIDFPELGEGETHAPSTDVDVLIHCHATRHDLLFYTLRKGISDIAQDIEIVDETYGFRYLDARDMTGFIDGTENPKAEKRAEVALVADGDFAGGSYVMVQRFVHNLPAWNRLNLAAQEKVIGRTKPDSVELENVPAASHVGRVDIKEEGKGLKIVRHSLPYGSVSGDHGLLFIAYCHTLHNFKTMLESMYGVTDGKTDQLLRFTKAVTGAYFFAPSQVMLQELTLKNQEGGSHHHHHH,soluble
5,GPGSMPRCTTLPLSSFPSLLTFMTVCAASSSPPLPRFRVAHLCRRGKDCLALARSLSLPIVEGAEGGGGRCGCSEWRREGAGERCSVFYLSLPASNFMCINFASPLHLRSPGARHIDVQDVPMERNTLQVVASAVNAEALSGAEDHACHASPVHRVYRLRDACTTLQLILLAYKYRRCSAHSMTVAMFVEACAYDLVQGVRVLESAPLSSSPGHDSSGDAIATLEAPWFYIGSEAGGDVRVYLLLPTYADYFLDYTMHWARVAYSEMARQYVGHSLIAKLQTVGGGWASLHRADKSLACALQLHAVAQAVFDEDVVRKCRLFIGWAHLWNSEPAKALEVFYAELAAARRHGDTIQERRCLHAIQNAEHNPRLAPGGAHTGHYQLVNLWWRALA,soluble
6,MNVLIVDDEPLARERLSRMVNEIEGYRVLEDSASNGEEALALIEKHKPDVVLLDIRMPGIDGLQVAAKLCEREAPPAVVFCTAHDEFALEAFQVSAVGYLVKPVRAEHLIEALKKAERPNRVQLAAMTRPAAESGSGPRTHISARTRKGIELIPLDQVIYFIADHKYVTLRHEGGEVLLDEPLKALEDEFGDRFVRIHRNALVARKRIESMKRTPVGHFELFLRGLNGDALIVSRRHVAGVRKMMQQL,soluble
7,MVDSIIFDLDGTLWDSTEEVCKVWQDVLSEHKEIELSVTKDLFRSLMGLSFEEIANRLFPNLSEEERMNLLNECSLKECDYLSENGAKLFDDIEDTLKLLSKKYKLFIVSNCQAGYIESFLKAHKLEQYFIDFECPGNTGLHKGENNKLIIERNKLINPIYVGDTQGDANSAKFVGIPFIYAKYGFGNVDVYDYFIDSFKDLLEHDILK,not soluble
8,MKATPAQVPMKERIKEVATDMLIAHGSSGFRFQQIAQALDCTRGNIHYHYRHKHELVEDVTIEYCQRTIGHFDQIWLSDSTLSQKIQLSMQFNEMRYLKRNPQGDTSHPWSLIARMRLESALITPAAREALARYSHELQRSVVAGVRRAVEKGELRPDTPVEMVALPIIEMANSADPITRDAGRFDRLRQMYQAVDRLIHDAYGMAGHRPAP,not soluble
9,MEVRFKIYRYNPEVDKKPYYDEYTVEVENEGVKVLTALELIKEQDPTLALRRSCREGVCGSDGMNINGKNRLACITSVGELKQPIKVNPLPGLPVIRDLIVDMKQFYKNYEKVKPYLINDDEPPVKERLQSPEDRAKLDGLYECILCACCTTSCPSFWWNPDKFIGPSGLLQAYRFIADSRDTATEQRLEDLKDPFSLFRCRTIMNCVSVCPKGLNPTEAIGKIRSALLKKNV,not soluble
10,MAHHHHHHMVNQTPHIVILSYDEEKINKFVSFLMSTFEPLESYEKAETYKLTFDRNDFHSGNGSSFAFKEVAKVAIVNKYYSAEVTISSCVVQSGENALRVEGSMPNGGLPDEANLPNGGLPDEANTPKMDLPDGAKPELQNQANELDAKDILCESVIFLFNNFTKKEKNIVNGNPFRSYDEECVEYIKDPESQQMIRNTHFDFSNLYKDVGIKIAIFPSSLEKDNKDIVNFFSDYFIECLYINYESAFLAEGGGQDDGHPSCPEEGDQNVKEEKTLLREFEEQEDDERLVEALHCHMWKGLQIKRDHLIIQHRGDFPMGEAFKGDEAARKGEKTPQKDEASPNGEKTPQKDEAAPNGENPPQRDAPATSGAAKIDLSGTLANSAKTPEGQKEELFMENFNKIVEKIRVAKMENKNCSNHAARRKKAEEIIFELQQYFCDIDGE,not soluble
11,MGSDKIHHHHHHMQDCDVRIFYIFKSLYDSGSATFVSQQHSVSPSKVSRYIAEMREVYNDSLFIRRKTHFVPTKKAREIYPKICEIIELIEGLSANRHELEVKKECVIAVPATLCVGLPEHLNRVIKQEGLDISLKVMSSHREICTKVINGEICIAITNRACTQTMDCNPKHSNLLHVEPISVGEHVYVVSAATGAIWQEKISLDNIAKYPFVVTQVSGFNDEKDPFEVYCEQRGLALNVFLKTQNLASMIEALMSENTISFIGPNSAAAFIAKVPSLRVEKLENCEYQRLHEAMHKPTYSMIYLKRNIDVIPPLIKSEVLRFISDSVCDF,not soluble
12,MGTVMDVLKGDNRFSMLVAAIQSAGLTETLNREGVYTVFAPTNEAFRALPPRERSRLLGDAKELANILKYHIGDEILVSGGIGALVRLKSLQGDKLEVSLKNNVVSVNKEPVAEPDIMATNGVVHVITNVLQP,soluble
13,MGSDKIHHHHHHMKYLIVVAHPDDEVLGAGASISRWTQNGDIVDVAIMCAEAKARAFRPDDNELEDDTNASTKYLGVDRIFEATFPNIEMNTVPHLRLVQFIESAIKESEPDIVITHHPADTNNDHLQTSMACQEAIRLFQRRPEVKRVKEFWYMEVPSCTEWAINNAMNLFRPNCYVEVGQEGVDAKITALGMYRGVMRPYPHPRSAEYITGLAAVRGSQWGTNYAESFEIVLREY,not soluble
14,MSLQNHDLESIKQAALIEYEVREQGSSDVLDSNISKEPLEFIIGANQIIVGLEKAVLKAQIGEWEEIVIAPEEAYGVYESGYLQEVPRDQFEGIELEKGMSVFGQTEDNQTIQATIKDFSNTHVMVDYNHPLAGKTLAFRFKVLGFREVSEEEILASHHDSGTGCCGGHGGHGGKKGGGCGCSCSHGEGGSHHHHHH,soluble
15,MAASMTKPISITSLGFYSDRKNIAFSDCISICSGFRHSRPSCLDLVTKSPSNNSRVLPVVSAQISSDYIPDSKFYKVEAIVRPWRIQQVSSALLKIGIRGVTVSDVRGFGAQGGSTERHGGSEFSEDKFVAKVKMEIVVKKDQVESVINTIIEGARTGEIGDGKIFVLPVSDVIRVRTGERGEKAEKMTGDMLSPS,not soluble
16,MLAMVNKVLDWIRSLFWKEEMELTLVGLQNSGKTTFVNVIASGQFTEDMIPTVGFNMRKITKGNVTIKLWDIGGQPRFRSMWERYCRGVNAIVFMVDAADEEKLEASRNELMQLLDKPQLDAIPVLVLGNKKDLPGALDERQLIERMNLSSIQNREICCYSISCKEKENIDITLQWLIDHSKAQR,not soluble
17,MLRIAFASALRFVRRHSSVLQADFEGGVSQSHISRLERGESSVTLERLEEIAAHLNVHPLSLIALTWGASEQIPPAELLERVRRELESVEGLLRPIAIDDQPAVHPRIIEAEKVRNEVQRLKALGHTKAEISRLMGIAKSTAARHW,not soluble
18,MGSDKIHHHHHHMSSKRLVIVGGGITGLAAAYYAERAFPDLNITLLEAGERLGGKVATYREDGFTIERGPDSYVARKHILTDLIEAIGLGEKLVRNNTSQAFILDTGGLHPIPKGAVMGIPTDLDLFRQTTLLTEEEKQEVADLLLHPSDSLRIPEQDIPLGEYLRPRLGDALVEKLIEPLLSGIYAGNIDQMSTFATYPQFVANEQKAGSLFEGMRLMRPLDQLPQTPQTTIKATGQFLSLETGLESLIERLEEVLERSEIRLETPLLAISREDGRYRLKTDHGPEYADYVLLTIPHPQVVQLLPDAHLPELEQLTTHSTATVTMIFDQQQSLPIEGTGFVVNRRAPYSITACTAIDQKWNHSAPDHTVLRAFVGRPGNDHLVHESDEVLQQAVLQDLEKICGRTLEPKQVIISRLMDGLPAYTVGHADRIQRVREEVLAQYPGIYLAGLAYDGVGLPDCVASAKTMIESIELEQSHTDESVNET,not soluble
19,MGSDKIHHHHHHMLKEFKEQRLKEIQELRSMGIEPYPYKFEKELTAREIREKYDYLQAGEVLESEKLSFAGRVMSIRHHGKTAFFHMKDDTGRIQAYIKADSVGKEKMDLFKRHVKIGDFVGVRGFPFKSKTGELTIYVQEYTLLSKALRPLPEKWHGIKDKEIIYRQRYLELIVNDEAIERFKKRFKAVRVIREFLNSRGFIEVETPILHYVTGGAEARPFVTHLNVFDIDMYLRIAPELYLKRLIVGGFEKIYEIGKNFRNEGISYKHSPEFTSIEIYQAYADYNDMMDLTEELIVEVVKRTCGTLKISYQGKEIDFTPPWKRVRMRDFLKEKLGVDILEDPDEVLLKKLEEHGVELEIKNRAHLIDKLRDLVEEELVNPTFIIDHPVVISPLAKRHREDPRLTERFELIIFGREIANAFSELNDPVDQYQRFLEQAKMREEGDEEAHMMDLDFVRALEYGMPPTGGLGIGLDRLFMFITDSPTIRDVIPFPIVKPKKFEEEEAEFEGGFEE,not soluble
20,MHHHHHHSSGRENLYFQGMWDQRLVRLALLQHLRAFYGIKVKGVRGQCDRRRHETAATEIGGKIFGVPFNALPHSAVPEYGHIPSFLVDACTSLEDHIHTEGLFRKSGSVIRLKALKNKVDHGEGCLSSAPPCDIAGLLKQFFRELPEPILPADLHEALLKAQQLGTEEKNKATLLLSCLLADHTVHVLRYFFNFLRNVSLRSSENKMDSSNLAVIFAPNLLQTSEGHEKMSSNTEKKLRLQAAVVQTLIDYASDIGRVPDFILEKIPAML,soluble
21,MGSDKIHHHHHHMTKNHKISVDQLQVGTHISLPVSWKDHPFLFSSFKIKDAAQIELIRHLGITEVFFNPEKSDTQPLALDAIQGDSIDLDDMVDASDTDEMMLLKNEMEVKKQDSIDKQQQMRRSINKTEKQFDRSVAMMRSVVSKLGSRPLNAVNDAKELIHNLTDLLLNSDNLVLHLMGDAKPEEGIYHHSLNVSVLCMLLGKGLGWSREEIELIGIGALFHDVGKLKIPSNILNKRTPLSVPEVNFIKQHPLMSINFLKLADNFPAAAEPLIANHHEFLDGSGSPQGLKADKLDNLSQLIAVVNEYDNLCNGNMQTKGKTPFAALSFLYKNYTKKLNKEYVGRMIKTLGIYPPGCIIELSSGQFGLVMSVNLKNILFPRIMVYDPQVPKDQAPIIDLEQEGIKIVRCLPPAALPENIFKYLNPREKVSYGLGSES,not soluble
22,MGWFGFGGNPTDTPSSSAEVSAAPIDLSAGMNFSVPGFDAPAPEPSVPDHSPFPAAPVLALDQLKSAGVGVSRQMTPYVQMDPSMFASQQPQYIMPEGGVAGKGKFEFALGHIGWAVGGAFGVGCARGALGELMNPETRKMVGKPWMTRMVNATMKHGSGFAQPSGAIVFMYSALEIGLRSVRAEDELNGFGAGALTGAIYRSPHGLKASGVGALVGLGIAAAWTLSSTDSRQRLSEMFSNH,soluble
